Where two headings read alike, the source gives them in different places.
B1: AS190259 VL1VH1 scFv-mIgG2aFc (Fc fusion, not shown: a dimerising Fc or GST)
chain: SSELTQDPAVSVALGQTVRITCQGGGYYVNWYQQKPGQAPVLVIYLNTNRPSGIPDRFSGSSSGNTASLTITGAQAEDEADYYCQSADSSGNSAVFGGGTKLTVLGGGGSGGGGSGGGGSEVQLVESGGGLVQPGGSLRLSCAASGFTFSSYAMSWVRQAPGKGLEWVSAINSGGGSTYYADSVKGRFTISRDNSKNTLYLQMNSLRAEDTAVYYCAKAASGYGGSWWGDATLDAWGQGTLVTVSS
notes: Humanized
B2: AS190259 VL2VH1 scFv-mIgG2aFc (Fc fusion, not shown: a dimerising Fc or GST; small tags and cut ends)
scFv: SSELTQDPAVSVALGQTVTITCQGGGYYVNWYQQKPGQAPVLVIYLNTNRPSGIPDRFSGSSSGNTASLTITGAQAEDEAAYYCQSADSSGNSAVFGGGTKLTVLGGGGSGGGGSGGGGSEVQLVESGGGLVQPGGSLRLSCAASGFTFSSYAMSWVRQAPGKGLEWVSAINSGGGSTYYADSVKGRFTISRDNSKNTLYLQMNSLRAEDTAVYYCAKAASGYGGSWWGDATLDAWGQGTLVTVSS
B3: AS170036 VL1VH1-VHG56F (scFv)
scFv: QSALTQPRSVSGSPGQSVTISCAGTSSDVGSENYVSWYQQHPGKAPKLMIYQVNKRASGVPDRFSGSKSGNTASLTISGLQAEDEADYYCASYRSSDHNIVFGGGTKLTVLGGGGSGGGGSGGGGSEVQLVESGGGLVQPGGSLRLSCAASGFTFSSYAMSWVRQAPGKGLEWVSTINSGTFSPYYADSVKGRFTISRDNSKNTLYLQMNSLRAEDTAVYYCAKNFFDGSWFLGPPAMDYWGQGTLVTVSSHHHHHH
B4: AS170036 VL1VH1-VHG108E (scFv)
scFv: QSALTQPRSVSGSPGQSVTISCAGTSSDVGSENYVSWYQQHPGKAPKLMIYQVNKRASGVPDRFSGSKSGNTASLTISGLQAEDEADYYCASYRSSDHNIVFGGGTKLTVLGGGGSGGGGSGGGGSEVQLVESGGGLVQPGGSLRLSCAASGFTFSSYAMSWVRQAPGKGLEWVSTINSGTGSPYYADSVKGRFTISRDNSKNTLYLQMNSLRAEDTAVYYCAKNFFDGSWFLEPPAMDYWGQGTLVTVSSHHHHHH
B5: AS170036 VL1VH1-VHG108M (scFv)
scFv: QSALTQPRSVSGSPGQSVTISCAGTSSDVGSENYVSWYQQHPGKAPKLMIYQVNKRASGVPDRFSGSKSGNTASLTISGLQAEDEADYYCASYRSSDHNIVFGGGTKLTVLGGGGSGGGGSGGGGSEVQLVESGGGLVQPGGSLRLSCAASGFTFSSYAMSWVRQAPGKGLEWVSTINSGTGSPYYADSVKGRFTISRDNSKNTLYLQMNSLRAEDTAVYYCAKNFFDGSWFLMPPAMDYWGQGTLVTVSSHHHHHH
B6: AS170036 VL1VH1-VHG108N (scFv)
scFv: QSALTQPRSVSGSPGQSVTISCAGTSSDVGSENYVSWYQQHPGKAPKLMIYQVNKRASGVPDRFSGSKSGNTASLTISGLQAEDEADYYCASYRSSDHNIVFGGGTKLTVLGGGGSGGGGSGGGGSEVQLVESGGGLVQPGGSLRLSCAASGFTFSSYAMSWVRQAPGKGLEWVSTINSGTGSPYYADSVKGRFTISRDNSKNTLYLQMNSLRAEDTAVYYCAKNFFDGSWFLNPPAMDYWGQGTLVTVSSHHHHHH
B7: AS170036 VL1VH1-VHS57Q (scFv)
scFv: QSALTQPRSVSGSPGQSVTISCAGTSSDVGSENYVSWYQQHPGKAPKLMIYQVNKRASGVPDRFSGSKSGNTASLTISGLQAEDEADYYCASYRSSDHNIVFGGGTKLTVLGGGGSGGGGSGGGGSEVQLVESGGGLVQPGGSLRLSCAASGFTFSSYAMSWVRQAPGKGLEWVSTINSGTGQPYYADSVKGRFTISRDNSKNTLYLQMNSLRAEDTAVYYCAKNFFDGSWFLGPPAMDYWGQGTLVTVSSHHHHHH
B8: AS170036 VL1VH1-VHS57R (scFv)
scFv: QSALTQPRSVSGSPGQSVTISCAGTSSDVGSENYVSWYQQHPGKAPKLMIYQVNKRASGVPDRFSGSKSGNTASLTISGLQAEDEADYYCASYRSSDHNIVFGGGTKLTVLGGGGSGGGGSGGGGSEVQLVESGGGLVQPGGSLRLSCAASGFTFSSYAMSWVRQAPGKGLEWVSTINSGTGRPYYADSVKGRFTISRDNSKNTLYLQMNSLRAEDTAVYYCAKNFFDGSWFLGPPAMDYWGQGTLVTVSSHHHHHH
B9: AS170036 VL1VH1-VLH98T (scFv)
scFv: QSALTQPRSVSGSPGQSVTISCAGTSSDVGSENYVSWYQQHPGKAPKLMIYQVNKRASGVPDRFSGSKSGNTASLTISGLQAEDEADYYCASYRSSDTNIVFGGGTKLTVLGGGGSGGGGSGGGGSEVQLVESGGGLVQPGGSLRLSCAASGFTFSSYAMSWVRQAPGKGLEWVSTINSGTGSPYYADSVKGRFTISRDNSKNTLYLQMNSLRAEDTAVYYCAKNFFDGSWFLGPPAMDYWGQGTLVTVSSHHHHHH
B10: AS190259 scFv-mIgG2aFc (Fc fusion, not shown: a dimerising Fc or GST)
chain: QSVVTQPSAVSVSLEETATITCQGGGYYVNWYQQKPGQAPVLVIYLNTNRPSGIPERFSASKSGGTATLTINGAQAEDEAAYYCQSADSSGNSAVFGGGTHLTVLGGGGSGGGGSGGGGSQVQLVQSGGGLVQPGGSLRLSCAASGFTFSSYAMSWVRQAPGKGLEWVSAINSGGGSTYYADSVKGRFTISRDNAKNTLYLQLNSLKTEDTAMYYCAKAASGYGGSWWGDATLDAWGQGTLVTVSS
notes: Camel scFv; i647-labelled for flow cytometry

Key:
[1] = molecular target: T1, AFP158/HLA-A*02:01 complex (human); experiment: SPR, scFv-mIgG2aFc from supernatant captured, complex as analyte
T1 construct: biotinylated on the BSP by BirA for ELISA and panning; also called biotinylated AFP158/HLA-A*02:01 complex; Bio-AFP158
Protocol: (§1) The binding affinity between selected antibodies and AFP158/HLA-A*02:01 complex was determined by surface plasmon resonance (SPR) on a BIAcore T200 instrument (GE Healthcare). The experiment was carried out as follows. The purified sdAb/scFv-mIgG2aFc protein were captured through mIgG2a-Fc onto the sensorchip. […] On-rate (kₐ) and off-rate (kd) were calculated based on association and dissociation curve, and were used to estimate the equilibrium dissociation constant (KD).
Humanized heavy chains and light chains were combined, and used to produce a series of humanized antibodies. These antibodies were synthesized as scFv-mIgG2aFc and transiently produced using HEK293 cells. The antibodies in the supernatant were subjected to SPR affinity assessment.

[2] = molecular target: T1, AFP158/HLA-A*02:01 complex; experiment: SPR; vs AS170036 VL1VH1
[3] = molecular target: T1, AFP158/HLA-A*02:01 complex; experiment: SPR, crude scFv captured;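 further: Peptide–MHC complex flowed at several concentrations over sensorchip-captured scFv, Kd derived from on- and off-rates obtained from the association and dissociation curves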
[4] = molecular target: BRCA2 peptide/HLA-A*02:01 complex (recombinant) (human); experiment: SPR
[5] = molecular target: RCL1 peptide/HLA-A*02:01 complex (recombinant) (human, UniProt P16213 21-119 (Pongo pygmaeus entry)); experiment: SPR
[6] = molecular target: NR2E1 peptide/HLA-A*02:01 complex (recombinant) (human); experiment: SPR
[7] = molecular target: RP1 peptide/HLA-A*02:01 complex (recombinant) (human, UniProt P16213 21-119 (Pongo pygmaeus entry)); experiment: SPR
[8] = molecular target: ZNF566 peptide/HLA-A*02:01 complex (recombinant) (human); experiment: SPR
[9] = molecular target: OR1I1 peptide/HLA-A*02:01 complex (recombinant) (human); experiment: SPR
[10] = molecular target: CDC14A peptide/HLA-A*02:01 complex (recombinant) (human); experiment: SPR
[11] = molecular target: OR51B6 peptide/HLA-A*02:01 complex (recombinant) (human); experiment: SPR
[12] = molecular target: ATG9A peptide/HLA-A*02:01 complex (recombinant) (human); experiment: SPR
[13] = molecular target: OR6C1 peptide/HLA-A*02:01 complex (recombinant) (human); experiment: SPR
[14] = molecular target: PTP4A1 peptide/HLA-A*02:01 complex (recombinant) (human); experiment: SPR
[15] = molecular target: ARNTL peptide/HLA-A*02:01 complex (recombinant) (human); experiment: SPR
[16] = molecular target: T1, AFP158/HLA-A*02:01 complex; experiment: SPR; vs AS170036 VL1VH1; remark: listed apart in the source
[17] = molecular target: T1, AFP158/HLA-A*02:01 complex; experiment: SPR, antibody captured via mIgG2a-Fc, complex as analyte
Protocol: as §1

Binder | Kd [1] [nM] | koff [1] [s⁻¹] | kon [1] [M⁻¹ s⁻¹] | Affinity increase [2] [fold] | Kd [3] [nM] | binding result [4] | binding result [5] | binding result [6] | binding result [7] | binding result [8] | binding result [9] | binding result [10] | binding result [11] | binding result [12] | binding result [13] | binding result [14] | binding result [15] | Affinity increase [16] [fold] | also measured
B1 | 200 | 0.39 | 2e+06 |  |  |  |  |  |  |  |  |  |  |  |  |  |  |  | 
B2 | 220 | 0.3 | 1.4e+06 |  |  |  |  |  |  |  |  |  |  |  |  |  |  |  | 
B3 |  |  |  | > 2 | 98 | no binding | no binding | no binding | no binding | no binding | no binding | no binding | no binding | no binding | no binding | no binding | no binding | 2.3 | 
B4 |  |  |  | > 2 | 56 | no binding | no binding | no binding | no binding | no binding | no binding | no binding | no binding | no binding | no binding | no binding | no binding | 4.1 | 
B5 |  |  |  | > 2 | 58 | no binding | no binding | no binding | no binding | no binding | no binding | no binding | no binding | no binding | no binding | no binding | no binding | 4.7 | 
B6 |  |  |  | > 2 | 140 | no binding | no binding | no binding | no binding | no binding | no binding | no binding | no binding | no binding | no binding | no binding | no binding | 2 | 
B7 |  |  |  | > 2 | 100 | no binding | no binding | no binding | no binding | no binding | no binding | no binding | no binding | no binding | no binding | no binding | no binding | 2.4 | 
B8 |  |  |  | > 2 | 88 | no binding | no binding | no binding | no binding | no binding | no binding | no binding | no binding | no binding | no binding | no binding | no binding | 2.8 | 
B9 |  |  |  | > 2 |  | no binding | no binding | no binding | no binding | no binding | no binding | no binding | no binding | no binding | no binding | no binding | no binding |  | 
B10 | 220 | 0.25 | 1.1e+06 |  |  |  |  |  |  |  |  |  |  |  |  |  |  |  | Kd [17]: 390 nM; koff [17]: 0.14 s⁻¹; kon [17]: 350000 M⁻¹ s⁻¹
